Test results: article doi:10.1101/373563 (bioRxiv, 2018)
Blank lines part the entries; values can stand above or below the molecule they belong to.

Legend:
[1] = biological target: Facklamia ignava NrdB∆Grx (lacking the Grx domain) (Facklamia ignava); assay: GEMMA
GEMMA = biological target: the molecule itself; assay: GEMMA
SEC [2] = biological target: the molecule itself; assay: SEC
SEC [3] = biological target: the molecule itself; assay: SEC; remark: listed apart in the source

stoichiometry N [1]: 4
Molecule: Facklamia ignava NrdB∆Grx (lacking the Grx domain) (domain or fragment)

B1: Facklamia ignava NrdB (Grx::ATP-cone::NrdB fusion protein), wild type (natural protein, UniProt K1LAT4 1-496, looked up)
chain: MTQVQVYSKKVCPWCTRLKDWMDKNNIDYEEIDIEVHPEAREYLHSLGLKTVPQVFIDGVHRPHEPLYSNLLHYIHGTSKIPQHVTKRNGDRVDFDPTKIEIAIQKANNETHELNDMEINTVTQKVVEKIDIDPIHVEEIQDLVETELMLQSFPRTAKAYILYRAEQTKARQRDIFKPRKNLKPYEYPELESYKEAIQHSYWLHTEYNYTSDIQDYKINVEPHERTAIRNAMLAISQVEVSVKTFWAKLYDRLPKPELANVGMTFAESEVRHSDAYSHLLELLGLNEIFEEIEQIPALNQRVDYLNSHIKYSQTGSNRDYTISILLFSAFIEHISLFSQFLIIMAFNKQKNLFSGISNVIEATSKEEQLHGEFGIDLINTIKAENPDWFDDELKEEIYTLVKQAYESEKDVLDWIYEDGEIDFMPTQTVLEFIKNRLNNSLEAIGLERIFETDLAEVEKTLWFDEEIVSTKHVDFFAKRSVNYTKRSQSMTADDLF
stoichiometry N (GEMMA): 2 | stoichiometry N (SEC [2]): 4

B2: Facklamia ignava NrdA (natural protein, UniProt K1MC37 1-567, looked up)
chain: MTAQLKNREYEPFYWLTEDSQTFLERGYLREGQDAHSRLREIADRAEEILGIDGFSDKFYTYLGRGYYSLSTPVWTNFGSNRGFPISCFGSTPDDNMASILYTAAEIGMMSKYGGGTSGFFGHLRPRGAAITNNGYSSGAVHFMKLFEQMTDTVSQGSSRRGRFAPYLPIDHPDIDEFLEIGVEGNDIQDLNHAVTVPDDWMREMIQGDREKRATWAKVIQRRVEMGYPYILFTDTINNNKPEWYHDYPITHSNLCSEIMLPDNDHWSFVCNLSSMNVLHYNEWKDTDAVETMIYFLDAVMSEFIEKLEKLRDSDQFEYREAFHFMERAYNFAVENRALGLGVLGWHSLLQSNLIAFESEEASYLNEEIHRTIQERAEKASCELAELFGEPLILKGTGRRNTTTMAIAPTTSSAFIIGQVSQSIEPLFSNYYVKDMSKIKTTIRNRYLVELLEEKGRNTPDVWESIKNHDGSVLHLDFLSDHEKNVFKTFAEINQYEIINQAAVRQRYIDQSQSLNIMINPATTTAKEMNQLYLYAWESGIKSLYYQHSTSAAQAFYRSSVCLACEA
stoichiometry N (SEC [3]): 2
